Experimental data published in patent US20230272011A1 (AVACTA LIFE SCIENCES, published 2023).
Blank lines part the entries; values can stand above or below the binder they belong to.

Key:
[1] = target: T1, mouse PD-L1-Fc tagged recombinant antigen (R&D systems) (mouse, UniProt Q9EP73 19-238); assay: SPR (Biacore), mouse PD-L1-Fc captured on Protein A chip, single cycle kinetics
T1 construct: Captured on a Protein A chip; not shown: Fc part of the bought protein, not described
Description: (§1) Aantigen was captured using a Protein A chip (GE Healthcare) and the AFFIMER® ILF format was run as an analyte using single cycle kinetics titrating from a maximum concentration of 1 nM, and regenerating using 10 mM glycine pH 1.5 (GE Healthcare).

mouse serum albumin [2] = target: T2, mouse serum albumin (mouse, UniProt P07724 25-608); assay: binding ELISA on coated MSA, panel title 'Affimer binding to MSA, pH 7' (legend: pH 7.4)
T2 construct: also called MSA
Description: (§2) Human (Sigma-Aldrich); Cynomolgus and Mouse (Abcam); Equine (Abcam); Canine (Abcam); Mouse (Sigma-Aldrich); Rabbit (Sigma-Aldrich); Porcine (Sigma-Aldrich);, and Rat (Sigma-Aldrich) serum albumin were coated overnight on 96 well plates (Corning Costar) at 1 μg/ml in PBS at the appropriate pH (pH 6.0 or 7.4). Plates were saturated using 5% Casein (Sigma-Aldrich) buffer in PBS. […] Plates were then washed and AFFIMER® proteins were detected using a biotinylated polyclonal antibody anti-Cystatin (R&D System) for 90 minutes. After washing, streptavidin-HRP (Thermo Fisher Scientific) was added and incubated for 30 minutes.
(§3) Briefly, PD-1 was coated overnight on the plate at 1 μg/ml in carbonate buffer. Then plates were saturated using 5% Casein/PBS buffer. […] After saturation, the mix was added to the plates and incubated for 90 minutes. Plates were then washed and the detection polyclonal antibody, biotinylated anti-PD-L1, was added. After washing the plates, streptavidin-HRP was added for 30 minutes. After a final wash, development of the reaction was performed using TMB (Pierce) and the plates were read using a plate reader at 450 nm (FIG. 26C).

[3] = target: T1, mouse PD-L1-Fc tagged recombinant …; assay: Biacore single cycle kinetics, mouse PD-L1-Fc captured on Protein A chip
Description: as §1

mPD-L1 = target: T3, mPD-L1 (mouse, UniProt Q9EP73 19-238, limits assumed); assay: competition ELISA: mPD-L1 pre-incubated with the AFFIMER polypeptide and added to coated mPD-1; blocked ligand mPD-1
T3 construct: May be the same reagent as the mouse PD-L1-Fc of the Biacore run
Description: as §3

human serum albumin [4] = target: T4, human serum albumin (human, UniProt P02768 25-609); assay: BLI (Octet), biotinylated albumin on SA sensor, pH 7.4
T4 construct: mature; Bought protein; biotinylated in the Octet and HTRF assays; also called HSA; HuSA
Method in brief: (§4)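 Biotinylated albumin was loaded on streptavidin sensors at 1 μg/ml for 600 s in PBS-T (0.01% Tween 20) + 1% casein at pH 6.0 or 7.4, 25° C, 1000 rpm. Kinetics came from a 1:1 global fit with reference-sensor subtraction.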

cynomolgus serum albumin [5] = target: T5, cynomolgus serum albumin (cynomolgus); assay: as above
T5 construct: also called CSA; cyno serum albumin
Method in brief: as §4

mouse serum albumin [6] = target: T2, mouse serum albumin; assay: as above
Method in brief: as §4

human serum albumin [7] = target: T4, human serum albumin; assay: SPR (Biacore T200), albumin amine-coupled to CM5, Affimer analyte, pH 7.4
Description: (§5) Affinities for mouse, human, and cynomolgus serum were also measured at pH 7.4 for four (4) AFFIMER® binders using surface plasmon resonance (SPR) (FIG. 5, Table 5). […] A concentration titration of AFFIMER® monomers was run as analyte at a flow rate of 30 μl/min or 60 μl/min. Fc2-1, Fc3-1 and Fc4-1 kinetic data was blank subtracted and fit to a 1:1 Langmuir binding model (BIAcore Evalution software; GE) to calculate KD values.

cynomolgus serum albumin [8] = target: T5, cynomolgus serum albumin; assay: as above
Description: as §5

mouse serum albumin [9] = target: T2, mouse serum albumin; assay: as above
Description: as §5

canine serum albumin = canine serum albumin (canine, UniProt P49822 25-608); assay: binding ELISA on coated albumin, pH 6.0, panel 'Canine SA Binding at pH 6.0'
Description: (§6) Briefly, ELISA was performed as follow:
as §2

human serum albumin [10] = target: T4, human serum albumin; assay: binding ELISA on coated albumin, pH 6.0, panel 'HSA Binding at pH 6.0'
Description: as §6, §2

rabbit serum albumin = rabbit serum albumin (rabbit, UniProt P49065 25-608); assay: binding ELISA on coated albumin, pH 7.4, panel 'Rabbit SA Binding at pH 7.4' (Table 6 gives NA for this pair)
Description: as §6, §2

human serum albumin [11] = target: T4, human serum albumin; assay: Octet biolayer interferometry, biotinylated albumin on SA sensors, pH 6.0
Description: (§7) Biotinylated antigen was captured onto SA sensors at 1 μg/ml for 600 seconds in a buffer comprising PBS-T (0.01% Tween 20)+1% casein at either pH 6.0 or 7.4. Association was carried out for 300 seconds and dissociation for 600 seconds, and regeneration was performed using 10 mM glycine pH 1.5 (GE Healthcare) for 3×5 seconds. All steps were carried out at 1000 rpm and 25° C. Purified AFFIMER® polypeptide in two-fold serial dilutions was analyzed at a starting concentration of approximately 10× K_{D value}. Kinetics analyses were carried out using the Octet data analysis software, subtracting the reference sensor (loaded with antigen), aligning the Y-axis to baseline, and using inter-step correction to align association to dissociation. Savitzky-Golay filtering was applied and the data processed. Analysis of the data was carried out with a 1:1 model, global fit, Rₘₐₓ unlinked by sensor.

cynomolgus serum albumin [12] = target: T5, cynomolgus serum albumin; assay: as above
Description: as §7

mouse serum albumin [13] = target: T2, mouse serum albumin; assay: as above
Description: as §7

cynomolgus serum albumin [14] = target: T5, cynomolgus serum albumin; assay: binding ELISA on coated albumin, pH 6.0, panel 'CSA Binding at pH 6.0'
Description: as §6, §2

recombinant FcRn = target: T6, recombinant FcRn (Homo sapiens (Human), UniProt P55899 24-297; P61769 21-119, Biotinylated (site and any tag carrying the biotin are not stated); captured on a Biotin CAPture chip.); assay: Biacore, biotinylated FcRn on Biotin CAPture chip, PBS-T pH 6.0
T6 construct: Captured on a Biotin CAPture chip; also called biotinylated FcRn (Amsbio); copies: 1 + 1
Description: FcRn Biacore binding analysis was performed using Biotin CAPture chip according to the manufacturer's protocol (GE Healthcare). Briefly, Biotin CAPture reagent was run for 300 sec at a 2 μl/min flow rate over surfaces Fc1 and Fc2 followed by the capture of biotinylated FcRn (Amsbio) at 10 μg/mL with a contact time of 50 seconds, run at 10 μl/min delivered to Fc2 only. […] Surface Fc1 and Fc2 regeneration was performed according to the manufacturer's protocol.

human serum albumin [15] = target: T4, human serum albumin; assay: Octet biolayer interferometry, biotinylated albumin on SA sensors, pH 7.4
Description: as §7

cynomolgus serum albumin [16] = target: T5, cynomolgus serum albumin; assay: as above
Description: as §7

mouse serum albumin [17] = target: T2, mouse serum albumin; assay: as above
Description: as §7

human serum albumin [18] = target: T4, human serum albumin; assay: binding ELISA, coated albumin, pH 7.4
Description: as §6, §2

porcine serum albumin = porcine serum albumin (porcine, UniProt P08835 25-607); assay: binding ELISA, coated albumin, pH 7.4
Description: as §6, §2

cynomolgus serum albumin [19] = target: T5, cynomolgus serum albumin; assay: binding ELISA, coated albumin, pH 7.4
Description: as §6, §2

rat serum albumin [20] = target: T7, rat serum albumin (rat, UniProt P02770 25-608); assay: binding ELISA, coated albumin, pH 7.4
Description: as §6, §2

rat serum albumin [21] = target: T7, rat serum albumin; assay: binding ELISA on coated albumin, pH 6.0, panel 'Rat SA Binding at pH 6.0'
Description: as §6, §2

equine serum albumin = equine serum albumin (equine, UniProt P35747 25-607); assay: binding ELISA on coated albumin, pH 7.4, panel 'Equine SA Binding at pH 7.4' (Table 6 gives NA for this pair)
Description: as §6, §2

human serum albumin [22] = target: T4, human serum albumin; assay: BLI (Octet), biotinylated albumin on SA sensor, pH 6.0
Method in brief: as §4

cynomolgus serum albumin [23] = target: T5, cynomolgus serum albumin; assay: as above
Method in brief: as §4

mouse serum albumin [24] = target: T2, mouse serum albumin; assay: as above
Method in brief: as §4

human serum albumin [25] = target: T4, human serum albumin; assay: Biacore, immobilised HSA, pH 7.4
Description: as §5

human serum albumin [26] = target: T4, human serum albumin; assay: SPR (Biacore), immobilised HSA, pH 7.4
Description: as §5

T5 sequence (A2V9Z4 25-608): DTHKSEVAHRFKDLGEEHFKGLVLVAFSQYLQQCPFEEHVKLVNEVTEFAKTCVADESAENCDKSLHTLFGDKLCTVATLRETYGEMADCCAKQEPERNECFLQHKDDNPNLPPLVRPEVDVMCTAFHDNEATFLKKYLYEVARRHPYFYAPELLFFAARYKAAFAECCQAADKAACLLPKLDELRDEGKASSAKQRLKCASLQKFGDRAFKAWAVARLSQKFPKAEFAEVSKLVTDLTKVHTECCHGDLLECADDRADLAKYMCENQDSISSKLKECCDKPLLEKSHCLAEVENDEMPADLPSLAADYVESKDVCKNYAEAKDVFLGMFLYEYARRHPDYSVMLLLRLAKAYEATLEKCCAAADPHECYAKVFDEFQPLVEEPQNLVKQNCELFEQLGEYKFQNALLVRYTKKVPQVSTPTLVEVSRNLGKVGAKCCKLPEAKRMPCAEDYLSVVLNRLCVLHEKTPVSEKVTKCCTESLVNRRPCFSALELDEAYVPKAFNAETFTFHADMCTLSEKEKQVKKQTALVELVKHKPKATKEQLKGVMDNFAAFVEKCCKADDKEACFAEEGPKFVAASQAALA
T1 sequence (Q9EP73 19-238 limits assumed): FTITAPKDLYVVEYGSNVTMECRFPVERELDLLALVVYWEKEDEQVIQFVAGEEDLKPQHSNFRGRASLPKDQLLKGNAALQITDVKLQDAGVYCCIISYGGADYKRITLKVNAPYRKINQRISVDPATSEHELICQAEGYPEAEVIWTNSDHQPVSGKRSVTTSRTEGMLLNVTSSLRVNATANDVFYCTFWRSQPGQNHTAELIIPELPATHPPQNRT
T2 sequence (P07724 25-608 limits assumed): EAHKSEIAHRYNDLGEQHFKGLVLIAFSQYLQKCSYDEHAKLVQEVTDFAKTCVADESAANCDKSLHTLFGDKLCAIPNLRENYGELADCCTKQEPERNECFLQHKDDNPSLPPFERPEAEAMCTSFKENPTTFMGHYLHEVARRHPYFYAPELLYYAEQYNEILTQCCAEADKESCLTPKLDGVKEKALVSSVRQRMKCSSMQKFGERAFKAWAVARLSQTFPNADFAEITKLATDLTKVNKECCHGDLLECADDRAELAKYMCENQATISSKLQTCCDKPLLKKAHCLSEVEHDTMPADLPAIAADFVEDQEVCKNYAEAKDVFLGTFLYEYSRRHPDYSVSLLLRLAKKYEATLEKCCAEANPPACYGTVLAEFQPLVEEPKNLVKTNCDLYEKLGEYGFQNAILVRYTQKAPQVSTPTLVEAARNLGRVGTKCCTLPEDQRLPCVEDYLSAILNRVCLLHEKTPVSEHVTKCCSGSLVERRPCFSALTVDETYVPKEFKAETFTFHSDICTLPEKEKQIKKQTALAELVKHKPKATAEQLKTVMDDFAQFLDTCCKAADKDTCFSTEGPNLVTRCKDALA
T7 sequence (P02770 25-608 limits assumed): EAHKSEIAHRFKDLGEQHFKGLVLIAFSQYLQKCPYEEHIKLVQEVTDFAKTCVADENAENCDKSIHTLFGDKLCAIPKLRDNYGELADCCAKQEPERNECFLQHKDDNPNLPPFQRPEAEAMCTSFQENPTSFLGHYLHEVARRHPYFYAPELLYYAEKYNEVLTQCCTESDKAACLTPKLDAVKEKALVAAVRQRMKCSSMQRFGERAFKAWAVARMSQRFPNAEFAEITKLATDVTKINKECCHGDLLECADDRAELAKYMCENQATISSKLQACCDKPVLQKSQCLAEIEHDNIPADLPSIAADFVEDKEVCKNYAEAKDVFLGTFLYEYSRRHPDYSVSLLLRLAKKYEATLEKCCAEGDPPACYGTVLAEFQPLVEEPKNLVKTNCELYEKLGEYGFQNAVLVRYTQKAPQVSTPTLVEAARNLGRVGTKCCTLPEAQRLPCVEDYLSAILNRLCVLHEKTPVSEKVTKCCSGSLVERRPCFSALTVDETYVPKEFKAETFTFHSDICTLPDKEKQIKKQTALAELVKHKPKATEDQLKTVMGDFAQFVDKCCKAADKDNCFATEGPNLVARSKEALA
Chain of equine serum albumin (P35747 25-607 limits assumed): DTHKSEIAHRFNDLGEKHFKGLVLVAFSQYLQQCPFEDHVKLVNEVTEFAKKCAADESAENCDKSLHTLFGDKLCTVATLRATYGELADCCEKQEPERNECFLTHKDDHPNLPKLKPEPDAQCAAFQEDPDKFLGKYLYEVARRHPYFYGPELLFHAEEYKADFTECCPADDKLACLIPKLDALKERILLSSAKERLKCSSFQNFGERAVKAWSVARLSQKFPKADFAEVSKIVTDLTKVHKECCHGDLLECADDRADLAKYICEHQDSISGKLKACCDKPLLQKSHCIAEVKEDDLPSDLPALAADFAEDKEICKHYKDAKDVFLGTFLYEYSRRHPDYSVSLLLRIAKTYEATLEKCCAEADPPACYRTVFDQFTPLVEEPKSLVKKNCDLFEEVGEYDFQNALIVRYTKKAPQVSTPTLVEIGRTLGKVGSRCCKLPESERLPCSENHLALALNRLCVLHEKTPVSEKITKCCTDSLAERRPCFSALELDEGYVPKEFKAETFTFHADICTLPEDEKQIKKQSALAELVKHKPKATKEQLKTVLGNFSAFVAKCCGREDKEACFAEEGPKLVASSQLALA
T3 sequence (Q9EP73 19-238 limits assumed): as the sequence (Q9EP73 19-238 limits assumed) above
Chain of canine serum albumin (P49822 25-608 limits assumed): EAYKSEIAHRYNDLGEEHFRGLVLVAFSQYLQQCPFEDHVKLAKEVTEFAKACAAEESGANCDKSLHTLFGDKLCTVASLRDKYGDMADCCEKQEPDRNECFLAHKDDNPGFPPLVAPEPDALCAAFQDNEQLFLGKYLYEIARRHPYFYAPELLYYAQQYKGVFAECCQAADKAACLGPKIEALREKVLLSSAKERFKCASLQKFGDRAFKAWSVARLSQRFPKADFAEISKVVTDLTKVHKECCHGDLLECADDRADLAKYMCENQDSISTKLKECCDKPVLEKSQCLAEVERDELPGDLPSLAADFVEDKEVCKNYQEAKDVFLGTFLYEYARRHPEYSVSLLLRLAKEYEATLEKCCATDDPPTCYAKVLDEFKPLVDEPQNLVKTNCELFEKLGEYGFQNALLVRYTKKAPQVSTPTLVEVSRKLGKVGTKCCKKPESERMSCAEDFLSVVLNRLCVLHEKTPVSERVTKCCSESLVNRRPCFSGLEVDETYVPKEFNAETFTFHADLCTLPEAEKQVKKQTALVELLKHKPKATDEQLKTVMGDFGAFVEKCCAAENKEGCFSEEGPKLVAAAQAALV
Chain of porcine serum albumin (P08835 25-607 limits assumed): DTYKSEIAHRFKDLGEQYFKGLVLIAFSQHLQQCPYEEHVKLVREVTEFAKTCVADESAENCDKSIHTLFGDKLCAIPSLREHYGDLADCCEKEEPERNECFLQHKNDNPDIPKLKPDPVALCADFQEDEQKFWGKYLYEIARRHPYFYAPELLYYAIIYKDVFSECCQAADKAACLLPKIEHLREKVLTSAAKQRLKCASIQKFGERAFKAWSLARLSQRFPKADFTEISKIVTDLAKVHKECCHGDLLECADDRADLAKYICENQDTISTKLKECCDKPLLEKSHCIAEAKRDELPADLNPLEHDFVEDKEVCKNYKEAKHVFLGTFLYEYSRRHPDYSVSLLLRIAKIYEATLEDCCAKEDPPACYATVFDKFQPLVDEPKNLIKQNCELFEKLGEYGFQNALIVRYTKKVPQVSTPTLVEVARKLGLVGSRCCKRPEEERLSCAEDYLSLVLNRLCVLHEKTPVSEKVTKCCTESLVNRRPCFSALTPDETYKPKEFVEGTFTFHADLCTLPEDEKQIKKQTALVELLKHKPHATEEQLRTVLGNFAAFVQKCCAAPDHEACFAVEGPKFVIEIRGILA
Chain of rabbit serum albumin (P49065 25-608 limits assumed): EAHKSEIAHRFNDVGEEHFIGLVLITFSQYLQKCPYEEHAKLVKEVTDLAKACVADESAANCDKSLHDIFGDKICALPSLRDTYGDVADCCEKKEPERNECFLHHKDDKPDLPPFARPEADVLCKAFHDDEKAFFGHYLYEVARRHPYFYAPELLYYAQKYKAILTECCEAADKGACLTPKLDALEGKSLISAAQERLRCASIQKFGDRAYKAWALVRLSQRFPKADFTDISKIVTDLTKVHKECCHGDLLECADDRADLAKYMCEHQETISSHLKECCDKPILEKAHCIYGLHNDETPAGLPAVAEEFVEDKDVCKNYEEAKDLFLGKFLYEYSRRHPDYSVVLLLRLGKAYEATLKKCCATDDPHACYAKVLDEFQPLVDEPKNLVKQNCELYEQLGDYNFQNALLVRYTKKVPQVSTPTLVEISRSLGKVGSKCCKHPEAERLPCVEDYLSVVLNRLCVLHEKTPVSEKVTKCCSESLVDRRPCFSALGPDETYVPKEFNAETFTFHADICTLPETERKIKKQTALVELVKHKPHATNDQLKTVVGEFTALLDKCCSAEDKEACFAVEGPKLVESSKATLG

Kd [1]: 0.0906 nM | binding result (mouse serum albumin [2]): binds | koff [3]: 0.0025 s⁻¹ | kon [3]: 2.76e+07 M⁻¹ s⁻¹ | IC50 (mPD-L1): 135 nM
B1: AVA04-182 XT20 (designed binder)
chain: MIPRGLSEAKPATPEIQEIVDKVKPQLEEKTNETYGKLEAVQYKTQVLAFALPEFEYMSTNYYIKVRAGDNKYMHLKVFNGPPMIRRKNEVADRVLTGYQVDKNKDDELTGFAEAAAKEAAAKEAAAKEAAAKEAAAKEAAAKMIPRGLSEAKPATPEIQEIVDKVKPQLEEKTNETYGKLEAVQYKTQVLAFALPEFEYMSTNYYIKVRAGDNKYMHLKVFNGPPMIRRKNEVADRVLTGYQVDKNKDDELTGFAEAAAKEAAAKEAAAKEAAAKEAAAKEAAAKMIPRGLSEAKPATPEIQEIVDKVKPQLEEKTNETYGKLEAVQYKTQVLANFFQRRWPGSTNYYIKVRAGDNKYMHLKVFNGPWKFRNTDRGADRVLTGYQVDKNKDDELTGFHHHHHH

Kd (human serum albumin [4]): 40.5 nM | Kd (cynomolgus serum albumin [5]): 213 nM | Kd (mouse serum albumin [6]): 622 nM | Kd (human serum albumin [7]): 350 nM | koff (human serum albumin [7]): 0.0183 s⁻¹ | kon (human serum albumin [7]): 52200 M⁻¹ s⁻¹ | Kd (cynomolgus serum albumin [8]): 419 nM | koff (cynomolgus serum albumin [8]): 0.0199 s⁻¹ | kon (cynomolgus serum albumin [8]): 47600 M⁻¹ s⁻¹ | Kd (mouse serum albumin [9]): 855 nM | koff (mouse serum albumin [9]): 0.0981 s⁻¹ | kon (mouse serum albumin [9]): 115000 M⁻¹ s⁻¹ | EC50 (read off the curve) (canine serum albumin): ~20 nM | EC50 (read off the curve) (human serum albumin [10]): ~7 nM | binding result (rabbit serum albumin): binds | koff (human serum albumin [11]): 0.00501 s⁻¹ | kon (human serum albumin [11]): 214000 M⁻¹ s⁻¹ | koff (cynomolgus serum albumin [12]): 0.00611 s⁻¹ | kon (cynomolgus serum albumin [12]): 45700 M⁻¹ s⁻¹ | koff (mouse serum albumin [13]): 0.0596 s⁻¹ | kon (mouse serum albumin [13]): 117000 M⁻¹ s⁻¹ | EC50 (read off the curve) (cynomolgus serum albumin [14]): ~20 nM | binding result (recombinant FcRn): no binding | koff (human serum albumin [15]): 0.00517 s⁻¹ | kon (human serum albumin [15]): 128000 M⁻¹ s⁻¹ | koff (cynomolgus serum albumin [16]): 0.0148 s⁻¹ | kon (cynomolgus serum albumin [16]): 69600 M⁻¹ s⁻¹ | koff (mouse serum albumin [17]): 0.0509 s⁻¹ | kon (mouse serum albumin [17]): 81800 M⁻¹ s⁻¹ | EC50 (human serum albumin [18]): 18.9 nM | EC50 (porcine serum albumin): 894 nM | EC50 (cynomolgus serum albumin [19]): 9.55 nM | EC50 (rat serum albumin [20]): 16.1 nM | EC50 (read off the curve) (rat serum albumin [21]): ~1 nM | binding result (equine serum albumin): binds | Kd (human serum albumin [22]): 23.4 nM | Kd (cynomolgus serum albumin [23]): 133 nM | Kd (mouse serum albumin [24]): 511 nM
B2: HSA-20 (designed binder)
chain: MIPRGLSEAKPATPEIQEIVDKVKPQLEEKTNETYGKLEAVQYKTQVLAGYWAAKWPGSTNYYIKVRAGDNKYMHLKVFNGPFPNTSYDLQADRVLTGYQVDKNKDDELTGFHHHHHH

Kd (human serum albumin [25]): 3.21 nM | koff (human serum albumin [25]): 0.00663 s⁻¹ | kon (human serum albumin [25]): 2.07e+06 M⁻¹ s⁻¹ | Kd (human serum albumin [26]): ~3 nM
B3: HSA-41 CQ (designed binder)
chain: MIPRGLSEAKPATPEIQEIVDKVKPQLEEKTNETYGKLEAVQYKTQVLANFFQRRWPGSTNYYIKVRAGDNKYMHLKVFNGPWKFRNTDRGADRVLTGYQVDKNKDDELTGFAAAGGRAEQKLISEEDLGCAENLYFQGGAAGHHHHHH
notes: Purified in the presence of 5 mM TCEP; also called HSA-41 free C-terminal cysteine format (CQ); HAS-41 CQ
